From publication PMC5664571

These substances were tested against E. coli RNA polymerase holoenzyme saturated with sigma70 (Escherichia coli) (UniProt P0A7Z4+P0A8V2+P0A8T7+P0A800+P00579) (assay: EMSA). Details: EMSA: 10 nM DNA, 0-170 nM RNAP, binding buffer (5X: 750 mM KCl, 0.5 mM DTT, 0.5 mM EDTA, 50 mM Tris pH 7.4; 1X = 150 mM KCl, 0.1 mM DTT, 0.1 mM EDTA, 10 mM …).

Q: How did the Kd turn out when “CCAGGATACATAGATTACCACAACTCCGAGCCCTTCCACCACCTATATTTGCTGCTCGTAAAAAAAAAACCTGACAGCTAGCTCAGTCCTAGGTATAATGCTAGCAGCTGTCACCGGATGTGCTTTCCGGTCTGATGAGTCCGTGAGGACGAAACAGCCTCTACAAATAATTTTGTTTAATAAGTCCAATAGTTTATAAGGAAAGAATTACCTATGCGTAAAGGCGAAGAGCTGTTCACTGGTGTCGTCCC (double strand) [J23108 + 1/2UP]” was run?
A: 22 nM

Q: Which Kd does the source give for “CCAGGATACATAGATTACCACAACTCCGAGCCCTTCCACCACCTATATTTGCTGCTCGTAAAAAAAAAACTTGACAGCTAGCTCAGTCCTAGGTACTGTGCTAGCAGCTGTCACCGGATGTGCTTTCCGGTCTGATGAGTCCGTGAGGACGAAACAGCCTCTACAAATAATTTTGTTTAATAAGTCCAATAGTTTATAAGGAAAGAATTACCTATGCGTAAAGGCGAAGAGCTGTTCACTGGTGTCGTCCC (double strand) [J23102 + 1/2UP]” here?
A: 45.5 nM

Q: With “CCAGGATACATAGATTACCACAACTCCGAGCCCTTCCACCACCTATATTTGCTGCTCGTAAAAAAAAAACTTGACAGCTAGCTCAGTCCTAGGTATAATGCTAGCAGCTGTCACCGGATGTGCTTTCCGGTCTGATGAGTCCGTGAGGACGAAACAGCCTCTACAAATAATTTTGTTTAATAAGTCCAATAGTTTATAAGGAAAGAATTACCTATGCGTAAAGGCGAAGAGCTGTTCACTGGTGTCGTCCC (double strand) [J23119 + 1/2UP]” as the substance, how does the Kd read?
A: 21 nM

Q: “CCAGGATACATAGATTACCACAACTCCGAGCCCTTCCACCACCTATGGAAAATTTTTTTAAAAAAAAAACCTGACAGCTAGCTCAGTCCTAGGTATAATGCTAGCAGCTGTCACCGGATGTGCTTTCCGGTCTGATGAGTCCGTGAGGACGAAACAGCCTCTACAAATAATTTTGTTTAATAAGTCCAATAGTTTATAAGGAAAGAATTACCTATGCGTAAAGGCGAAGAGCTGTTCACTGGTGTCGTCCC (double strand) [J23108 + UP]” was tested. Which Kd did it give?
A: 31.4 nM

Q: Which Kd does the source give for “CCAGGATACATAGATTACCACAACTCCGAGCCCTTCCACCACCTATGGAAAATTTTTTTAAAAAAAAAACTTGACAGCTAGCTCAGTCCTAGGTACTGTGCTAGCAGCTGTCACCGGATGTGCTTTCCGGTCTGATGAGTCCGTGAGGACGAAACAGCCTCTACAAATAATTTTGTTTAATAAGTCCAATAGTTTATAAGGAAAGAATTACCTATGCGTAAAGGCGAAGAGCTGTTCACTGGTGTCGTCCC (double strand) [J23102 + UP]” here?
A: 44.8 nM

Q: With “CCAGGATACATAGATTACCACAACTCCGAGCCCTTCCACCACCTATGGAAAATTTTTTTAAAAAAAAAACTTGACAGCTAGCTCAGTCCTAGGTATAATGCTAGCAGCTGTCACCGGATGTGCTTTCCGGTCTGATGAGTCCGTGAGGACGAAACAGCCTCTACAAATAATTTTGTTTAATAAGTCCAATAGTTTATAAGGAAAGAATTACCTATGCGTAAAGGCGAAGAGCTGTTCACTGGTGTCGTCCC (double strand) [J23119 + UP]” as the substance, how does the Kd read?
A: 42 nM

Q: For J23109, which Kd is on record?
A: 46 nM

Q: With J23109 + 1/2UP as the substance, how does the Kd read?
A: 64.8 nM

Q: Which Kd does the source give for J23109 + UP here?
A: 7.44 nM

Q: For J23112, which Kd is on record?
A: 50.8 nM

Q: J23112 + 1/2UP was tested. Which Kd did it give?
A: 68.2 nM

Q: For J23112 + UP, which Kd is on record?
A: 12.6 nM

Q: Which Kd does the source give for J23115 here?
A: 55 nM

Q: For J23115 + 1/2UP, which Kd is on record?
A: 51.7 nM

Q: Which Kd does the source give for J23115 + UP here?
A: 38.1 nM
